Two molecules from paper PMC7082060, “Structure of mouse coronavirus spike protein complexed with receptor reveals mechanism for viral entry” (PLoS Pathogens, 2020) can be followed below.

The target in data set [1] is MHV spike ectodomain (S-e), strain A59 (mouse hepatitis coronavirus (MHV), strain A59) (UniProt P11224).
Data set [2] shares this target. As to the kind of experiment: cryo-EM structure.
The data set “cryo-EM structure” deals with the molecule itself. As to the kind of experiment: cryo-EM structure.

“Mouse CEACAM1a ectodomain (D1-D4), C-terminal His6 tag (receptor)” showed a negative-stain EM: share of S-e molecules in the post-fusion conformation after high concentration of trypsin with CEACAM1a (11.75% without CEACAM1a) in data set [1] of 50.9%. In addition, in data set [2], the stoichiometry N (CEACAM1a molecules per S-e trimer) stood at 3.

B1: MHV spike ectodomain (S-e), strain A59 (domain or fragment)
chain: YIGDFRCIQLVNSNGANVSAPSISTETVEVSQGLGTYYVLDRVYLNATLLLTGYYPVDGSKFRNLALRGTNSVSLSWFQPPYLNQFNDGIFAKVQNLKTSTPSGATAYFPTIVIGSLFGYTSYTVVIEPYNGVIMASVCQYTICQLPYTDCKPNTNGNKLIGFWHTDVKPPICVLKRNFTLNVNADAFYFHFYQHGGTFYAYYADKPSATTFLFSVYIGDILTQYYVLPFICNPTAGSTFAPRYWVTPLVKRQYLFNFNQKGVITSAVDCASSYTSEIKCKTQSMLPSTGVYELSGYTVQPVGVVYRRVANLPACNIEEWLTARSVPSPLNWERKTFQNCNFNLSSLLRYVQAESLFCNNIDASKVYGRCFGSISVDKFAVPRSRQVDLQLGNSGFLQTANYKIDTAATSCQLHYTLPKNNVTINNHNPSSWNRRYGFNDAGVFGKNQHDVVYAQQCFTVRSSYCPCAQPDIVSPCTTQTKPKSAFVNVGDHCEGLGVLEDNCGNADPHKGCICANNSFIGWSHDTCLVNDRCQIFANILLNGINSGTTCSTDLQLPNTEVVTGICVKYDLYGITGQGVFKEVKADYYNSWQTLLYDVNGNLNGFRDLTTNKTYTIRSCYSGRVSAAFHKDAPEPALLYRNINCSYVFSNNISREENPLNYFDSYLGCVVNADNRTDEALPNCDLRMGAGLCVDYSKSRRAHRSVSTGYRLTTFEPYTPMLVNDSVQSVDGLYEMQIPTNFTIGHHEEFIQTRSPKVTIDCAAFVCGDNTACRQQLVEYGSFCVNVNAILNEVNNLLDNMQLQVASALMQGVTISSRLPDGISGPIDDINFSPLLGCIGSTCAEDGNGPSAIRGRSAIEDLLFDKVKLSDVGFVEAYNNCTGGQEVRDLLCVQSFNGIKVLPPVLSESQISGYTTGATAAAMFPPWSAAAGVPFSLSVQYRINGLGVTMNVLSENQKMIASAFNNALGAIQDGFDATNSALGKIQSVVNANAEALNNLLNQLSNRFGAISASLQEILTRLEAVEAKAQIDRLINGRLTALNAYISKQLSDSTLIKVSAAQAIEKVNECVKSQTTRINFCGNGNHILSLVQNAPYGLYFIHFSYVPISFTTANVSPGLCISGDRGLAPKAGYFVQDDGEWKFTGSSYYYPEPITDKNSVIMSSCAVNYTKAPEVFLNTSIPNPPDFKEELDKWFKNQTSIAPDLSLDFEKLNVT
notes: also called MHV S-e; recombinant MHV S-e; not shown: GCN4 trimerization tag, C-terminal, kept; His6, C-terminal, kept
As to B1, the “stoichiometry N” value in “cryo-EM structure” was determined as 3.

Usually stoichiometry N stands for the number of molecules, sites or subunits per partner or assembly.
